Test results: patent US20190062411A1 (AstraZeneca / MedImmune, published 2019)

Tests used:
[1] = target: T1, MrkA on the surface of live or whole K. pneumoniae bacteria (Klebsiella pneumoniae, UniProt P12267 23-202); assay: whole cell ELISA on K. pneumoniae strain 29011 (title: Kp29011 ELISA)
T1 construct: Target of whole-bacteria ELISA, FACS and confocal assays; The strain is named under assay in each row; On bacteria MrkA is assembled into fimbriae (oligomeric); also called K. pneumoniae MrkA; type III fimbriae major subunit MrkA
T1 chain: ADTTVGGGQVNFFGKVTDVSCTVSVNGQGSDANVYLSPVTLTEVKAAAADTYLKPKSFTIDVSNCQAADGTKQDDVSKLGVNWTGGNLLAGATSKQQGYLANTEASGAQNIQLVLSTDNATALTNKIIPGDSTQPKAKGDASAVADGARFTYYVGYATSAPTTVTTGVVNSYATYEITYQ
Protocol: Briefly, a single colony of K. pneumoniae was inoculated into 2xYT media until the culture reached log phase. Bacteria were coated onto 384-well plates (Nunc MaxiSorp) overnight at 4° C. […] After blocking with PBS supplemented with 4% BSA (PBS-B), the coated plates were incubated with anti-K. pneumoniae antibodies for 1 h. The plates were then washed with PBS-T (PBS+0.1% Tween 20) before HRP-conjugated secondary antibody was added for 1 h followed by washing and TMB (3, 3′, 5, 5′-Tetrametheylbenzidine) substrate addition. Color development was stopped by adding 0.1 N HCL, and the absorbance at 450 nm was measured by microplate reader (Molecular Devices). The data was plotted with Prism software.

[2] = target: T2, biotinylated recombinant his-tagged MrkA, mixture of monomeric and oligomeric MrkA (Klebsiella pneumoniae, UniProt P12267 23-202, biotin-labeled (Pierce kit; sites not stated)); assay: BLI (Octet), biotinylated MrkA on streptavidin sensors, IgG in solution, 1:1 fit
T2 construct: also called biotinylated-MrkA; a mixture of monomeric and multimeric MrkA; not shown: his tag
T2 chain: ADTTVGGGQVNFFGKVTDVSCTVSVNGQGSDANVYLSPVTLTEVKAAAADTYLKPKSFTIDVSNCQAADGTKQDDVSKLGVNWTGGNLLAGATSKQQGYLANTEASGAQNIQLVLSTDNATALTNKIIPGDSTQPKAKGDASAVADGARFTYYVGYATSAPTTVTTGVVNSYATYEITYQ

[3] = target: T2, biotinylated recombinant his-tagged …; assay: ELISA, biotinylated MrkA captured by streptavidin (title: anti-MrkA IgG binding to bio-MrkA)
[4] = target: T2, biotinylated recombinant his-tagged …; assay: ELISA, MrkA protein coated directly onto the plate, not biotinylated (title: anti-MrkA IgG binding to MrkA)
[5] = target: T3, MrkA with a 40 amino acid N-terminal deletion (MrkA-N-dlt) (Klebsiella pneumoniae, UniProt P12267 41-202); assay: ELISA on plates coated directly with cleared lysate of E. coli expressing the His-tagged construct; y axis without a label
T3 construct: Lysate of E. coli coated on the ELISA plate; not shown: His tag added at the C terminus
T3 chain: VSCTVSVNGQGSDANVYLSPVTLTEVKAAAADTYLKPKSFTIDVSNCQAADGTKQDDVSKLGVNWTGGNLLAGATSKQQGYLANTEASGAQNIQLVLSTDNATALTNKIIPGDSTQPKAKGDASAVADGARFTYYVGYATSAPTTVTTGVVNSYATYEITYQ

[6] = target: T4, MrkA with both the N and C terminal deletions (MrkA-N/C-dlt) (Klebsiella pneumoniae, UniProt P12267 41-170); assay: as above
T4 construct: Lysate of E. coli coated on the ELISA plate; not shown: His tag added at the C terminus
T4 chain: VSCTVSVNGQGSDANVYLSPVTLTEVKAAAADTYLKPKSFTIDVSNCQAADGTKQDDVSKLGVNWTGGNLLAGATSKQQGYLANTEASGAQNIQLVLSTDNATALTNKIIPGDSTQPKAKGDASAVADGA

[7] = target: T5, monomeric MrkA (purified, BLI) (Klebsiella pneumoniae, UniProt P12267 23-202); assay: BLI (Octet), Fab against monomeric MrkA
T5 construct: not shown: N terminal 6x his tag from pET28
T5 chain: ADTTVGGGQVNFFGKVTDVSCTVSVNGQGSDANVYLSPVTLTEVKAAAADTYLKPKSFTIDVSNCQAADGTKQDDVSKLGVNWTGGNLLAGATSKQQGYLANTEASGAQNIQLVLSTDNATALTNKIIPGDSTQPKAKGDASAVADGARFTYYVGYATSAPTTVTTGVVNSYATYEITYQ

B1: Kp3 (antibody, IgG1, V domains shown)
VH: QVQLQESGPGLVKPSETLSLTCTVSGGSMNSNSNTYYWGWIRQPPGKGLEWIGTIHSSGRTYYNPSLKSRVTISVDMSKNQFSLNLTSATAADTAVYYCARDLSGASLAPRRPFNYYYYNMDVWGRGTLVTVSS
VL: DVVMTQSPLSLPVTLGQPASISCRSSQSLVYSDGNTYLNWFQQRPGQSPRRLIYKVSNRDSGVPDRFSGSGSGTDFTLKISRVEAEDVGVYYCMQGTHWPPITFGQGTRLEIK
notes: constant regions are not; also called anti-MrkA mAb Kp3; MAb Kp3
EC50 (read off the curve) [1]: ~0.08 µg/mL
Kd [2]: 0.15 nM
koff [2]: 1.2e-05 s⁻¹
kon [2]: 76000 M⁻¹ s⁻¹
EC50 (read off the curve) [3]: ~0.01 µg/mL
EC50 (read off the curve) [4]: ~0.01 µg/mL
binding result [5]: no binding
binding result [6]: no binding

B2: anti-MrkA clone 4 (IgG1) (antibody, V domains shown)
VH: QLQLQESGPGLVKPSGTLSLTCAVSGDSIDNANWWSWVRQTPGKGLEWIGEIYHSGTTYYNPSLKSRVTISIDNSKNQFSLALTSVTAADTAVYYCARDRDITSRGTFDVWGRGTMVTVSS
VL: DIQMTQSPSTLSASIGDRVTITCRASEGIYHWLAWYQQKPGKAPKLLIYKASSLASGAPSRFSGSGSGTDFTLTISSLQPDDFATYYCQQYSNYPLTFGGGTKLEIK
notes: also called St2_C4; IgG clone 4
Kd [2]: 3.61 nM
koff [2]: 0.000146 s⁻¹
kon [2]: 40600 M⁻¹ s⁻¹
EC50 (read off the curve) [3]: ~0.1 µg/mL
EC50 (read off the curve) [4]: ~0.01 µg/mL

B3: anti-MrkA clone 6 (IgG1) (antibody, V domains shown)
VH: QVQLVQSGAEVRKPGASVTLSCRTSGYTFTSYAVHWVRQAPGQGLEWMGGVNGGNGNTRFSQKFQDRLMIVRDRSANTASMELRSLTSEDTAVYYCARADDCSGVGCHPWFDPWGQGTLVTVSS
VL: SVILTQPPSVSVSPGQTANITCSGDKLGDKYTSWYLQKPGQSPVLLIFQDTKRPSDIPERFSGSNSGNTATLTISGTQAVDEADYYCQAWDSDSGTATFGGGTKLTVL
notes: also called St4_C6; IgG clone 6
Kd [2]: 8.8 nM
koff [2]: 0.0002 s⁻¹
kon [2]: 22000 M⁻¹ s⁻¹
EC50 (read off the curve) [3]: ~0.01 µg/mL
EC50 (read off the curve) [4]: ~0.01 µg/mL

B4: anti-MrkA clone 1 (IgG1) (antibody, V domains shown)
VH: QVQLVQSGAEVRKPGASVTVFCRTSGYIFTSYAVHWVRQAPGQGLEWMGGINGGNGNTRISQRFQDRLMITRDRSANTASMELRSLTSEDTAIYYCARADDCSGVGCHPWFDPWGRGTLVTVSS
VL: QSVLTQPPSVSVSPGHTASITCSGDKLGDKYVSWYQQKSGQSPVLVMYKDTKRPSGIPERFSGSNSGNTATLAISGTQAVDEADYFCQAWDRSIMIFGGGTKVTVL
notes: also called St1_C1; IgG clone 1
Kd [2]: 3.25 nM
koff [2]: 0.00017 s⁻¹
kon [2]: 53000 M⁻¹ s⁻¹
EC50 (read off the curve) [3]: ~0.01 µg/mL
EC50 (read off the curve) [4]: ~0.01 µg/mL

B5: Clone 1 Fab (Fab, V domains shown)
VH: QVQLVQSGAEVRKPGASVTVFCRTSGYIFTSYAVHWVRQAPGQGLEWMGGINGGNGNTRISQRFQDRLMITRDRSANTASMELRSLTSEDTAIYYCARADDCSGVGCHPWFDPWGRGTLVTVSS
VL: QSVLTQPPSVSVSPGHTASITCSGDKLGDKYVSWYQQKSGQSPVLVMYKDTKRPSGIPERFSGSNSGNTATLAISGTQAVDEADYFCQAWDRSIMIFGGGTKVTVL
notes: also called Clone 1 (Fab format)
Kd [7]: 2.76 nM
koff [7]: 0.00034 s⁻¹
kon [7]: 150000 M⁻¹ s⁻¹

B6: Kp16 (antibody, V domains shown)
VH: QVQLQQSGAEVKKPGASVKVSCKASGYALTTYYMHWVRQAPGQGLQWMGMINPSSGSTIYAQPFRGRVTLTRDTSSGTVFMDLSSLTSEDTAIYYCARGNYGSSFGYWGKGTMVTVSS
VL: not shown
EC50 (read off the curve) [1]: ~0.08 µg/mL

B7: anti-MrkA clone 5 (IgG1) (antibody, V domains shown)
VH: QVQLVQSGAEVKKPGASLKVSCKASGYTFTAYYMHWVRQAPGHGLEWMGWINPSSGGTNSAQKFQGRVTMTRDTSINTAYMELSRLTSDDTAVYYCARGTIGAAGNYWGQGTLVTVSS
VL: QSVLTQPPSASGTPGQRVTISCSGSRPNIGGNTVNWYQQLPGAAPKLLIYSNSQRPSGVPDRFSGSKYGTSASLAISGLQSDDEADYYCAAWDDSLTGPVFGGGTKLTIL
notes: also called St3_C5; IgG clone 5
Kd [2]: 3.54 nM
koff [2]: 9.2e-05 s⁻¹
kon [2]: 26000 M⁻¹ s⁻¹
EC50 (read off the curve) [3]: ~0.2 µg/mL
EC50 (read off the curve) [4]: ~0.01 µg/mL

B8: Clone 5 Fab (Fab, V domains shown)
VH: QVQLVQSGAEVKKPGASLKVSCKASGYTFTAYYMHWVRQAPGHGLEWMGWINPSSGGTNSAQKFQGRVTMTRDTSINTAYMELSRLTSDDTAVYYCARGTIGAAGNYWGQGTLVTVSS
VL: QSVLTQPPSASGTPGQRVTISCSGSRPNIGGNTVNWYQQLPGAAPKLLIYSNSQRPSGVPDRFSGSKYGTSASLAISGLQSDDEADYYCAAWDDSLTGPVFGGGTKLTIL
notes: also called Clone 5 (Fab format)
Kd [7]: 1520 nM
koff [7]: 0.0782 s⁻¹
kon [7]: 50000 M⁻¹ s⁻¹
